This assay concerns the target Probe II: N-terminal domains of Rluc and DnaE with nuclear localization signal (expressed from pcRDn-NLS) (Renilla; blue-green algae, PCC6803 strain) (UniProt P27652). Nature of the assay: cell-based or functional assay.

Probe II: N-terminal domains of Rluc and DnaE with nuclear localization signal (expressed from pcRDn-NLS) (Renilla; blue-green algae, PCC6803 strain), sequence (P27652 whole entry, the tested form may be a part): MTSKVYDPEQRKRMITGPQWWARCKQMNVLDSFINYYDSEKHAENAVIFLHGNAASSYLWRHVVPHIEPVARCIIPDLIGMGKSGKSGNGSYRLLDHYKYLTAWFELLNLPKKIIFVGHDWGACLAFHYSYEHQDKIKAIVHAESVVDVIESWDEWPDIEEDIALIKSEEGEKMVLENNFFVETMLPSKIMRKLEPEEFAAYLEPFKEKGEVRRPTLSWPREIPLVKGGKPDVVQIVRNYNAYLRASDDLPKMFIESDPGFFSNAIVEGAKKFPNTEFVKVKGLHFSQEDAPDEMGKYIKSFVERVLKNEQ

“Probe I: AR connected to the C-terminal domains of RLuc and DnaE (expressed from pcDRc-AR) (from UniProt P27652 230-311; P10275 1-918)” came in with a luminescence intensity (cooled CCD image of mice implanted with transfected COS-7 cells) of 20 times.

These data come from patent publication US20070178464A1.
